B1: HDV Ribozyme (parent)
chain: GGCCGGCAUGGUCCCAGCCUCCUCGCUGGCGCCGGCUGGGCAACAUUCCGAGGGGACCGUCCCCUCGGUAAUGGCGAAUGGGACCCA

Consider 32 variants from the RNAGym collection of RNA variant scans (doi:10.7554/elife.80360).

In the data set the parent is B1. Kind of data set: self-cleavage, relative activity (ratio to wild type); higher = more cleavage; co-transcriptional.
With GGCCUGCAUGGUCCCAGCCUCCUCUCUGGCGCCGGCUGGGCAACAUUCCGAGGGGACCGUCCCCUCGGUAAUGGCGAAUGGGACCCA [G5U G25U], the self-cleavage was 0.

In the case of AGCCGGCAUGGUCCCAGCCUCCUCGCUGGCGCCGGCUAGGCAACAUUCCGAGGGGACCGUCCCCUCGGUAAUGGCGAAUGGGACCCA [G1A G38A], the self-cleavage amounted to 0.0332. As for AGCCGGCAUGGUCCCAGCCUCCUCGCUGGCGCCGGCUUGGCAACAUUCCGAGGGGACCGUCCCCUCGGUAAUGGCGAAUGGGACCCA [G1A G38U], the self-cleavage stood at 0.0845. GGCCGGCAUGGUCCCAGCCUCAUCGCUGGCGCCGGCUGGGCAACAUUCCGAGGGGACCGACCCCUCGGUAAUGGCGAAUGGGACCCA [C22A U60A]: the self-cleavage was 0.326. GGCCGGCAUGGUCCCAGCCUCCUCGGUGGCGCCGGCUGGGCAACAUUCCGAGGGGACCGUCACCUCGGUAAUGGCGAAUGGGACCCA [C26G C62A]: the self-cleavage was 0.985.

Turning to GGCCGGCAUGGUCCCAGCCUCCUCGUUGGCGCCGGCUGGGCAACAUUCCGAGGGGACCGUUCCCUCGGUAAUGGCGAAUGGGACCCA [C26U C61U], the self-cleavage was 0.941. Take GGCCGGCAUGGUCCCAGCCUCCUCGCUGGCGCCGGCUGGGCACCAUUCCGAGGGGACCGUCCUCUCGGUAAUGGCGAAUGGGACCCA [A43C C63U]: the self-cleavage came to 0.529. GGCCGGCAUGGUCCCAGCCUCCUCGCUGGCGCCGGCUGGGCAACAUUCCGAGGGGACCGUCCCCUCGGUAAUAGGGAAUGGGACCCA [G73A C75G]: the self-cleavage came to 0.19. Turning to GGCCGGCAUGGGCCCAGCCUCCUCGCUGGCGCCGGCUGGGCAACAUUCCGAGGGGACCUUCCCCUCGGUAAUGGCGAAUGGGACCCA [U12G G59U], the self-cleavage turned out to be 0.973.

Regarding GGCCGGCAUCGUCCCAGCCUCCUCGCUGGCGCCGGCUGGGCAACAUUCCGAGGGGACAGUCCCCUCGGUAAUGGCGAAUGGGACCCA [G10C C58A], the self-cleavage was found to be 0.886. Turning to GGCCGGCAUGGUCCCAGCCUCCUCGCUGGCGCCGGCUGGGCAACAUUCUGAGGGGACUGUCCCCUCGGUAAUGGCGAAUGGGACCCA [C49U C58U], the self-cleavage was 0.991. With GGCCGGCAUGGUCCCAGCCUCCUCGCUGGCGCUGGCUGGGCAACAUUCCGAGGGGACCGUCCCCUCGGUGAUGGCGAAUGGGACCCA [C33U A70G], the self-cleavage amounted to 0.758.

On to GGCCGGCAUGGUCCCACCCUCCUCGCUGGCGCCGGCUGGGCAACAUUCCGAGGGGACCGUCCCCGCGGUAAUGGCGAAUGGGACCCA [G17C U65G], for which the self-cleavage was 0.249. Regarding GGCCGGCAUGGUCCCAGCCUCCUCGCUGGCGUCGGCUGGGCAACAUUCCGAGGGGACCGGCCCCUCGGUAAUGGCGAAUGGGACCCA [C32U U60G], the self-cleavage worked out at 1.02. In the case of GGCCGGCAUGGUCCCAGCCUCCUCGCUGGCGCCGGCUGGGCAACAUUCCGAGGGGGCCGUCCCCUCGGUGAUGGCGAAUGGGACCCA [A56G A70G], the self-cleavage amounted to 1.14.

On to GGCCGGCAUGGUCCCAGCCUCCUCGCUGGCGCAGGCUGGGCACCAUUCCGAGGGGACCGUCCCCUCGGUAAUGGCGAAUGGGACCCA [C33A A43C], for which the self-cleavage was determined as 0.0852. GGCCGGCAUGGUCCCAGCCUCCUCGCUGGCGCCGGCUGGGCAACAUUCCGAGGGGACGGUCCCCUCGGUAAUGUCGAAUGGGACCCA [C58G G74U]: the self-cleavage was determined as 0.511. Take GGCCGGCAUGGUCCCAGCCUCCUCGCUGGCGACGGCUGGGCAACAUUCCGAGGGGACCGUCCCCUCGGUAAUGGCGUAUGGGACCCA [C32A A77U]: the self-cleavage was 0.108. In the case of GGCCGGCAUGGUCCCAGCCUCCUCGCUGGCGCCGGCUGGGCAACAUUCCGAGGGGACCGUCCCCUCGGUAGUGGCGAAUGGGCCCCA [A71G A83C], the self-cleavage worked out at 0.415. Regarding GGCCGGCAUGGUCCCAGCCUCCUCGCUGGCGCCGGCUGGGAAACAUUCCGAGGGGACCGUCCCCUCGGGAAUGGCGAAUGGGACCCA [C41A U69G], the self-cleavage came to 0.975.

In the case of GGCCGGUAUGGUCCCAGCCUCCUCGCUGGCGCUGGCUGGGCAACAUUCCGAGGGGACCGUCCCCUCGGUAAUGGCGAAUGGGACCCA [C7U C33U], the self-cleavage was 0.672. Then GGCCGGCAUGGUCCCAGCCUCCUCGCGGGCGCCGGCUGGGCAACAUUCCGAGGGGACCGUCCCAUCGGUAAUGGCGAAUGGGACCCA [U27G C64A], with 0.705; and GGCCGGCAUGGUCCCAGCCUCCUCGCUGGCGCCGGCUGGGCAACAUUCCGAGGGGACCGACCCCUCGGUAUUGGCGAAUGGGACCCA [U60A A71U], with 1.03. For the variant GGCCGGCAUGGUCCCAGCCUCCUCGCUGGCGCCGGCAGGGCAACAUUCCGAGGGGACCGUCCCCUCGGUAAUGCCGAAUGGGACCCA [U37A G74C], the self-cleavage amounted to 0.212. Then UGCCGGCAUGGUCCCAGCCUCCUCGCUGGCGCCGGCUGGGCAACAUUCCGAGGGGACCGUCCCCUCGGGAAUGGCGAAUGGGACCCA [G1U U69G], with 0.435; and GGCGGGCAUGGUCCCAGCCUCCUCGCUGGCGCCGGCUGGACAACAUUCCGAGGGGACCGUCCCCUCGGUAAUGGCGAAUGGGACCCA [C4G G40A], with 0.237; and GGCCGGCAUGGUCCCGGCCUCCUCGCUGGCGCCGGCUGUGCAACAUUCCGAGGGGACCGUCCCCUCGGUAAUGGCGAAUGGGACCCA [A16G G39U], with 0.582. Then GGCCGGCAUGGUCCCAGCCUCCUCGCUGGCGCCGGCUGGGCAACAUUCAGAGGGGACCGUCCCCUCGGUAAUGGCGAAUGGGACCCA [C49A], with 0.965; and GGCCGCCAUGGUCCCAGCCUCCUCGCUGGCGCCAGCUGGGCAACAUUCCGAGGGGACCGUCCCCUCGGUAAUGGCGAAUGGGACCCA [G6C G34A], with 0.0536.

Consider GGCCGGCAUGGUCCCAGCCUCCUCGCUGCCGCCGGCUGGGCAACAAUCCGAGGGGACCGUCCCCUCGGUAAUGGCGAAUGGGACCCA [G29C U46A], for which the self-cleavage was determined as 0.178. For GGACGGCAUGGUCCCAGCCUCCUCGCUGGCGCCGGCUGGGCAACAUUCCGAGGGGACCGACCCCUCGGUAAUGGCGAAUGGGACCCA [C3A U60A], the self-cleavage was determined as 0.611. For GGCCGGCAUGGUCCCAGCCUCCUCGCUGGCGCCGGCUGGGCAACUUUCCGAGGGGACCGUCCCCUCGGUAAUGGCAAAUGGGACCCA [A45U G76A], the self-cleavage amounted to 0.578.
